The source of these data is patent US6365372.

The assay deals with Gal-CBP1-2441 chimera (yeast) (UniProt P45481). Kind of assay: cell-based or functional assay.

Consider “SRCAP1275-2971 (from UniProt Q6ZRS2 1534-3230)”, for which the ability of Gal-CBP to activate transcription of pGal-CAT was 2.5 fold.
